Laboratory results reported in patent publication US20060263354A1 (Amgen, published 2006).

Legend:
peptide 1 = target: T1, peptide 1 (human); test: peptide ELISA
T1 construct: also called peptide 1 of mature GDF8
T1 peptide: DFGLDCDEHSTESRCCRY
Procedure: (§1) Eleven peptides were generated from mature GDF8 to test and localize antibody binding (See FIG. 6). Peptide ELISA was done on glutaraldehyde coated ELISA plates and on uncoated ELISA plates (NUNC-Immuno™ plate MaxiSorp™ surface, Nalge Nunc International, Cat. No. 439454). Glutaraldehyde coated plates were prepared by mixing 250 μl glutaraldehyde (50% w/v) with 50 ml deionized water and adding 200 μl of the solution into each well. Plates were incubated for at least 1 hour at room temperature. The glutaraldehyde was shaken out of the plate and smashed upside down on paper towels to remove all the liquid prior to use.
(§2) ELISA plates were coated with peptide at 1.0 μg/well/50 μl (in Sodium bicarbonate buffer, pH 9.6) for at least 4 hours, and then blocked with 200 μl blocker (1%BSA, 1%Ethanolamine pH 7.4) for minimum 4 hours. Plates were washed with PBST three times with 200 μl/well. 50 μl antibody (1 μg/ml in PBST, Phosphate-buffered saline (PBS) with 0.05% Tween-20) sample was added to the wells for 1 hour. Plates were then washed with PBST three times. 50 μl anti-human IgG-horseradish peroxidase(HRP) (Pierce, Cat# 31420) diluted in PBST is added for another hour. The wells were washed again with TBST three times, and then with deionized water twice. 50 μl ABTS (MOSS) was added for 5-20 minutes, and the signal was detected at 405 nm in a colormetric plate reader.

peptide 5 = target: T2, peptide 5 (human); test: peptide ELISA
T2 construct: also called peptide 5 of mature GDF8
T2 peptide: CCTPTKMSPINMLYFNGK
Procedure: as §1, §2

[1] = target: T3, mature GDF8 from mouse serum (mouse, UniProt O08689 268-376); test: immunoprecipitation from mouse serum, western blot
T3 construct: mature; also called mouse serum mature GDF8
T3 sequence (looked up): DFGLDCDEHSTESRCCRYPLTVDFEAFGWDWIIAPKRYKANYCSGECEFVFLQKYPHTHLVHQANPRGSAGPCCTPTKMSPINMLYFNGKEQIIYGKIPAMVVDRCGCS
Procedure: An immunoprecipitation study was conducted to test the binding of myostatin antibodies to mature GDF8 from mouse serum. […] mouse serum (Rockland, Cat ## D208-00) was incubated with 20 μg myostatin antibodies for 16 hours at 4° C. Protein A Dynalbeads were added and incubated for 90 minutes at 4° C. The immunoprecipitate was collected using MPC-E magnetic concentrator (Dynal, Norway), and washed four times with PBS. […] Western blotting was performed using Odyssey Infrared imaging system (Li-Cor). Mature GDF8 was detected using biotinylated goat anti-myostatin antibody (R&D systems, Cat# BAF788). […] It is known that mature GDF8 in the serum binds to many inhibitory proteins such as propeptide, FLRG, and GASAP1 (Hill et al. (2002) The myostatin propeptide and the follistatin-related gene are inhibitory binding proteins of myostatin in normal serum. J. Biol. Chem. 277: 40735-40741. Hill et al. (2003) Regulation of myostatin in vivo by growth and differentiation factor-associated serum protein-1: a novel protein with protease inhibitor and follistatin domains. Mol. Endocrin. 17(6): 1144-1154). […] Such non-competitive neutralizing antibodies would be advantageous in vivo.

mature GDF8 = target: T4, mature GDF8 (human, UniProt O14793 267-375); test: immunoprecipitation from 293T conditioned medium, western blot
T4 construct: also called myostatin; mstn
T4 sequence: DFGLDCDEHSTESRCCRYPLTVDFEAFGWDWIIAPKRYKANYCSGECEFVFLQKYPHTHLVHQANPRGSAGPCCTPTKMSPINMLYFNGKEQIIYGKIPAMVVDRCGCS
Procedure: An immunoprecipitation study was conducted to test the binding of myostatin antibodies to mature GDF8 and mature GDF8/propeptide complex. 293T cells were transfected with GDF-8 expression construct. Conditioned media was harvested 7 days after transfection, which contained mature GDF8 and latent complex. 100 μl conditioned media was incubated with 10 μg myostatin antibodies for 16 hours at 4° C. Protein A Dynabeads (Dynal, Norway) were added and incubated for 90 minutes at 4° C. The immunoprecipitate was collected using MPC-E magnetic concentrator (Dynal, Norway), and washed four times with PBS. […] Western blotting was performed using Odyssey infrared imaging system (Li-Cor). Mature GDF8 and unprocessed GDF8 were detected using goat anti-myostatin antibody (R&D systems, Cat# AF788). Rabbit anti-propeptide polyclonal antibody (made in-house) was used to detect both propeptide and unprocessed GDF8. […] No other antibodies immunoprecipitated mature GDF8, propeptide, or unprocessed GDF8. Lane 4 is the 1/10 medium loading control, and lane 7 is immunoprecipitation control with medium only.

Measured: binding result

B1: 2-112-1 (antibody, V domains shown)
VH: EVQLLESGGGLIQPGGSLRLSCAASGFTFSSFAMSWVRQAPGKGLEWVSTISGSGGYTFYADSVKGRFTISRDNSKNTLYLQMNSLRAEDTAVYYCAKDGRYNWNYGAFDIWGQGTMVTVSS
VL: EIVMTQSPATLSVSPGERATLSCRASQSVSSNLAWYQQKPGQAPRLLIYGASTRATGFPARFSGSGSGTEFTLTISSLQSEDFAIYYCQQYNNWPLTFGGGTKVEIKR
notes: Full-length deduced chains
binds: all assays above

B2: 2-43-1 (antibody, V domains shown)
VH: EVQLLESGGGLVQPGGSLRLSCAASGFTFSSYAMSWVRQAPGKGLEWVSAISGSGGSTFYADSVTGRFTISRDNSKNTLFLQLNSLRAEDTAVYHCAKDGRFNWNYGASDIWGQGTMVTVSS
VL: EIVMTQSPATLSVSPGERATLSCRTSQSVSSNLAWYQQKPGQAPRLLIYGASTRATGIPARFSGSGSGTEFTLTISSLQSEDFAVYYCQQYNNWPLTFGGGTKVEIKR
notes: Full-length deduced chains
binds: all assays above

B3: 2-177-1 (antibody, V domains shown)
VH: EVQLLESGGGLIQPGGSLRLSCAASGFTFSSFAMSWVRQAPGKGLEWVSTISGSGGSTYYADFVKGRFTISRDNSKNTLYLQMNSLRAEDTAVYYCAKDGRYNWNYGAFDIWGQGTMVTVSS
VL: EIVMTQSPATLSVSPGERATLSCRASQSVRSNLAWFQQKPGQAPRLLIYGASTRATGIPARFSGSGSGTEFTLTISSLQSEDFAVYYCQQYNNWPLTFGGGTKVEIKR
notes: Full-length deduced chains
binds: all assays above
